Experimental data as given in the supplement of paper PMC6757056.
± gives the standard deviation of the averaged measurements.

B1: library; a variant is named by its letters at N, in order (parent)
chain: GCUGUCACCGGUGCUUGGUACGUUAUAUUCAGCCGGUCUGAUGAGUCUNNNNNNAGACGAAACAGC

Key:
[1] = variants of: B1; experiment: FACS-Seq fitted mean relative fluorescence mCherry/BFP without ligand (log10 relative fluorescence); HEK293T overexpressing SLC46A1; higher = higher reporter protein expression; settings: without (6R,S)-folinic acid; ligand present: no
In short: (§1)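 With or without ligand for 48 h, enriched HEK293T libraries carrying a lentiviral ribozyme-switch mCherry reporter and EF1α-BFP were sorted into 6 mCherry/BFP bins. Bin genomic DNA was amplified by PCR, barcoded and sequenced on MiSeq. Fluorescence was taken from normal fits to the resulting bin counts. Each fitted mean of log10(mCherry/BFP) was scaled to five spiked-in control ribozymes.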

[2] = variants of: B1; experiment: normalized RNA/DNA level without ligand (relative to sTRSVctl = 100) (log10 (% of sTRSVctl)); HEK293T overexpressing SLC46A1; higher = less ribozyme self-cleavage, higher mRNA level; settings: without (6R,S)-folinic acid; ligand present: no
Experimental: (§2)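 Hammerhead (sTRSV) ribozyme switch libraries with a ligand aptamer grafted on stem I and a randomized N4-6 loop II, cloned into the 3' UTR of mCherry and transiently transfected into HEK293T cells; RNA-Seq 72 h post transfection with ligand added 1 h before transfection; RNA read count / plasmid DNA read count normalized to the non-cleaving sTRSVctl (x100), log10; sequences with >100 DNA reads. FACS-Seq: lentiviral library sorted into 6 bins after 48 h ligand, log-normal fit mean of mCherry/BFP scaled to controls. Printed sequences are partial switch sequences.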

[3] = variants of: B1; experiment: FACS-Seq fitted mean relative fluorescence mCherry/BFP with ligand (log10 relative fluorescence); HEK293T overexpressing SLC46A1; ligand concentration (+) FACS-Seq: 6 mM; higher = higher reporter protein expression; settings: with (6R,S)-folinic acid; ligand present: yes
In short: as §1

[4] = variants of: B1; experiment: normalized RNA/DNA level with ligand (relative to sTRSVctl = 100) (log10 (% of sTRSVctl)); HEK293T overexpressing SLC46A1; ligand concentration (+) RNA-Seq: 6 mM; higher = less ribozyme self-cleavage, higher mRNA level; settings: with (6R,S)-folinic acid; ligand present: yes
Experimental: as §2

Row | Variant | FACS-Seq fitted mean (log10) [1] | normalized RNA/DNA level without ligand (log10) [2] | FACS-Seq fitted mean (log10) [3] | normalized RNA/DNA level with ligand (log10) [4]
1 | CAUCGC | 0.37 ± 0.072 | 2.019 ± 0.0067 | 0.228 ± 0.031 | 1.99 ± 0.041
2 | GCAUAG | 0.335 ± 0.0092 | 1.966 ± 0.017 | 0.466 ± 0.13 | 2.02 ± 0.053
3 | GCAUAU | -0.109 ± 0.058 | 1.97 ± 0.029 | -0.0866 ± 0.33 | 2 ± 0.045
4 | GCAUAA | 0.2764 ± 0.00097 | 1.968 ± 0.011 | 0.171 ± 0.029 | 2 ± 0.027
5 | UCAUUG | 0.0972 ± 0.14 | 1.876 ± 0.0017 | 0.304 ± 0.23 | 2 ± 0.05
6 | UAUUGA | 0.265 ± 0.09 | 1.91 ± 0.025 | 0.57 ± 0.12 | 1.985 ± 0.003
7 | UAUUGG | -0.0117 ± 0.013 | 1.59 ± 0.037 | 0.338 ± 0.024 | 1.91 ± 0.034
8 | ACAUGG | 0.326 ± 0.041 | 1.916 ± 0.0031 | 0.203 ± 0.12 | 2.04 ± 0.046
9 | ACACGA | 0.206 ± 0.039 | 1.9971 ± 0.00061 | 0.242 ± 0.26 | 2.02 ± 0.059
10 | UAUGAG | 0.159 ± 0.026 | 1.609 ± 0.0041 | 0.709 ± 0.075 | 1.9 ± 0.045
11 | UAUGAC | 0.193 ± 0.17 | 1.971 ± 0.01 | 0.413 ± 0.083 | 2 ± 0.053
12 | UAUGAU | 0.263 ± 0.038 | 1.911 ± 0.013 | 0.486 ± 0.099 | 1.97 ± 0.027
13 | AAUCGG | 0.494 ± 0.13 | 1.94 ± 0.017 | 0.573 ± 0.06 | 2.01 ± 0.027
14 | AAUCGC | 0.375 ± 0.075 | 2.027 ± 0.017 | 0.448 ± 0.18 | 2.01 ± 0.029
15 | UCAAUG | 0.183 ± 0.076 | 1.814 ± 0.0085 | 0.195 ± 0.15 | 2 ± 0.037
16 | UCAUAA | 0.276 ± 0.048 | 1.935 ± 0.014 | 0.514 ± 0.034 | 1.96 ± 0.03
17 | UAUGGC | -0.0353 ± 0.039 | 1.948 ± 0.014 | -0.149 ± 0.14 | 2 ± 0.032
18 | UAUGGG | 0.1983 ± 0.0014 | 1.54 ± 0.028 | 0.816 ± 0.12 | 1.91 ± 0.045
19 | UAUGGA | 0.416 ± 0.029 | 1.828 ± 0.012 | 0.472 ± 0.013 | 1.98 ± 0.021
20 | CAUGUG | 0.241 ± 0.086 | 2 ± 0.025 | 0.351 ± 0.27 | 1.992 ± 0.011
21 | CAUGUU | -0.0794 ± 0.016 | 2.027 ± 0.017 | -0.27 ± 0.064 | 2.04 ± 0.029
22 | ACAGGU | 0.385 ± 0.057 | 1.909 ± 0.019 | 0.437 ± 0.1 | 1.97 ± 0.052
23 | ACAGGG | 0.0799 ± 0.097 | 1.7 ± 0.032 | 0.604 ± 0.24 | 1.97 ± 0.029
24 | UCACCG | 0.426 ± 0.13 | 1.971 ± 0.006 | 0.151 ± 0.15 | 2.01 ± 0.03

Row | Variant | FACS-Seq fitted mean (log10) [1] | normalized RNA/DNA level without ligand (log10) [2] | FACS-Seq fitted mean (log10) [3] | normalized RNA/DNA level with ligand (log10) [4]
25 | CAUUAC | 0.716 ± 0.11 | 1.984 ± 0.003 | 0.484 ± 0.06 | 1.98 ± 0.036
26 | CAUUAU | 0.4935 ± 0.0016 | 1.976 ± 0.011 | 0.36 ± 0.13 | 1.98 ± 0.056
27 | GCAGCG | 0.175 ± 0.0041 | 1.977 ± 0.016 | 0.0708 ± 0.18 | 2.03 ± 0.022
28 | ACCCGA | 0.249 ± 0.044 | 2.017 ± 0.016 | 0.537 ± 0.076 | 2.03 ± 0.044
29 | CCAAGU | 0.0806 ± 0.0022 | 2.038 ± 0.0087 | 0.036 ± 0.024 | 2.04 ± 0.047
30 | UCAGGG | 0.0969 ± 0.0033 | 1.81 ± 0.032 | 0.351 ± 0.2 | 1.99 ± 0.041
31 | UCAGGU | 0.531 ± 0.015 | 1.9204 ± 0.0013 | 0.603 ± 0.23 | 1.99 ± 0.024
32 | UCAGGA | 0.149 ± 0.13 | 1.901 ± 0.011 | -0.0151 ± 0.03 | 1.98 ± 0.032
33 | UCAAAA | 0.0137 ± 0.17 | 1.944 ± 0.012 | 0.0601 ± 0.04 | 1.99 ± 0.046
34 | UCAAAC | 0.446 ± 0.11 | 2.01 ± 0.0051 | 0.621 ± 0.079 | 2.01 ± 0.056
35 | AAUGCG | 0.217 ± 0.13 | 1.839 ± 0.018 | 0.405 ± 0.11 | 2 ± 0.03
36 | AAUGCA | 0.514 ± 0.0055 | 1.99 ± 0.03 | 0.45 ± 0.072 | 2.02 ± 0.034
37 | AAUUGU | 0.0241 ± 0.064 | 1.949 ± 0.019 | 0.334 ± 0.097 | 1.98 ± 0.032
38 | AAUUGA | 0.309 ± 0.021 | 1.966 ± 0.0098 | 0.358 ± 0.11 | 2 ± 0.0091
39 | AAUUGG | 0.112 ± 0.046 | 1.93 ± 0.024 | 0.122 ± 0.064 | 2 ± 0.022
40 | AAUGAG | 0.455 ± 0.051 | 1.778 ± 0.0047 | 0.7222 ± 0.0013 | 1.97 ± 0.021
41 | AAUGAA | 0.442 ± 0.1 | 1.956 ± 0.0073 | 0.46 ± 0.055 | 2 ± 0.029
42 | GCAGUA | 0.218 ± 0.051 | 1.98 ± 0.022 | 0.482 ± 0.12 | 2.02 ± 0.038
43 | GCAGGG | 0.107 ± 0.12 | 1.9807 ± 0.00024 | 0.128 ± 0.053 | 2.04 ± 0.036
44 | GCAGGA | 0.7 ± 0.19 | 1.972 ± 0.0072 | 0.642 ± 0.041 | 2.02 ± 0.023
45 | CAUUUU | 0.383 ± 0.084 | 1.982 ± 0.015 | 0.284 ± 0.047 | 1.99 ± 0.043
46 | CAUUUG | 0.428 ± 0.042 | 2.05 ± 0.0064 | 0.431 ± 0.069 | 2.06 ± 0.025
47 | GCAAGA | 0.477 ± 0.0057 | 2.022 ± 0.0049 | 0.457 ± 0.12 | 2.04 ± 0.024
48 | GCAAGG | 0.437 ± 0.041 | 1.957 ± 0.007 | 0.376 ± 0.13 | 2.04 ± 0.049

Row | Variant | FACS-Seq fitted mean (log10) [1] | normalized RNA/DNA level without ligand (log10) [2] | FACS-Seq fitted mean (log10) [3] | normalized RNA/DNA level with ligand (log10) [4]
49 | GCCAUG | 0.2783 ± 0.0012 | 1.982 ± 0.019 | 0.209 ± 0.15 | 2.01 ± 0.026
50 | AAUGUC | -0.0892 ± 0.053 | 2.075 ± 0.01 | -0.24 ± 0.095 | 2.037 ± 0.0021
51 | GAUGUU | 0.317 ± 0.026 | 1.976 ± 0.0069 | 0.463 ± 0.066 | 2.01 ± 0.031
52 | GAUGUC | 0.311 ± 0.066 | 2.021 ± 0.013 | 0.392 ± 0.21 | 1.991 ± 0.014
53 | GAUGUA | 0.1 ± 0.0045 | 1.937 ± 0.004 | 0.322 ± 0.11 | 2.001 ± 0.02
54 | GAUGUG | 0.409 ± 0.09 | 1.889 ± 0.0086 | 0.576 ± 0.27 | 2.02 ± 0.021
55 | GAUGGU | 0.536 ± 0.091 | 2.004 ± 0.0039 | 0.622 ± 0.045 | 2.02 ± 0.049
56 | GAUGGC | 0.227 ± 0.13 | 1.967 ± 0.019 | 0.542 ± 0.2 | 2.01 ± 0.021
57 | UCAAGA | 0.185 ± 0.046 | 1.9951 ± 0.0012 | 0.305 ± 0.13 | 2.028 ± 0.014
58 | UCAAGC | 0.599 ± 0.019 | 2.071 ± 0.0039 | 0.553 ± 0.17 | 2.05 ± 0.04
59 | CCAGCC | 0.159 ± 0.022 | 2.05 ± 0.025 | -0.0156 ± 0.022 | 2.03 ± 0.039
60 | GAUUAA | 0.2664 ± 0.0013 | 1.977 ± 0.0031 | 0.453 ± 0.16 | 2 ± 0.028
61 | GAUUAG | -0.00141 ± 0.0098 | 1.95 ± 0.0067 | -0.175 ± 0.038 | 2.005 ± 0.013
62 | GAUUAU | 0.371 ± 0.018 | 1.97 ± 0.013 | 0.305 ± 0.0094 | 1.992 ± 0.012
63 | GAUGAU | 0.196 ± 0.072 | 1.935 ± 0.019 | 0.199 ± 0.049 | 1.98 ± 0.034
64 | GAUGAC | 0.579 ± 0.11 | 1.95 ± 0.025 | 0.593 ± 0.085 | 2.01 ± 0.043
65 | GAUGAG | 0.483 ± 0.0054 | 1.858 ± 0.0066 | 0.624 ± 0.12 | 1.978 ± 0.015
66 | GAUGAA | 0.212 ± 0.041 | 1.966 ± 0.012 | 0.37 ± 0.0079 | 1.989 ± 0.017
67 | UCAACC | 0.654 ± 0.28 | 2.04 ± 0.023 | 0.606 ± 0.39 | 1.978 ± 0.017
68 | UCAACU | 0.46 ± 0.092 | 2.03 ± 0.0056 | 0.559 ± 0.13 | 2.04 ± 0.027
69 | GCAAAA | 0.327 ± 0.023 | 1.989 ± 0.0033 | 0.174 ± 0.032 | 2 ± 0.051
70 | GCAACU | 0.431 ± 0.019 | 2.0623 ± 0.00038 | 0.667 ± 0.22 | 2.06 ± 0.029
71 | CCAUGU | 0.369 ± 0.014 | 2.035 ± 0.018 | 0.222 ± 0.16 | 2.03 ± 0.04
72 | UCAGUC | 0.427 ± 0.2 | 2.083 ± 0.016 | 0.298 ± 0.2 | 2.013 ± 0.015
